Data published in US20220332804A1 (CSL INNOVATION, published 2022).

How the values were obtained:
Experiment in all cases: SPR, KD relative to WT C2;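 also: biacore SPR at 37 °C, anti-C2 mAbs captured via immobilised goat anti-human IgG, C2 alanine or serine surface mutants as analytes, 1:1 model fitted, double-referenced sensograms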
human C2 D282A = target: T1, human C2 D282A (human, UniProt P06681 21-752)
T1 sequence: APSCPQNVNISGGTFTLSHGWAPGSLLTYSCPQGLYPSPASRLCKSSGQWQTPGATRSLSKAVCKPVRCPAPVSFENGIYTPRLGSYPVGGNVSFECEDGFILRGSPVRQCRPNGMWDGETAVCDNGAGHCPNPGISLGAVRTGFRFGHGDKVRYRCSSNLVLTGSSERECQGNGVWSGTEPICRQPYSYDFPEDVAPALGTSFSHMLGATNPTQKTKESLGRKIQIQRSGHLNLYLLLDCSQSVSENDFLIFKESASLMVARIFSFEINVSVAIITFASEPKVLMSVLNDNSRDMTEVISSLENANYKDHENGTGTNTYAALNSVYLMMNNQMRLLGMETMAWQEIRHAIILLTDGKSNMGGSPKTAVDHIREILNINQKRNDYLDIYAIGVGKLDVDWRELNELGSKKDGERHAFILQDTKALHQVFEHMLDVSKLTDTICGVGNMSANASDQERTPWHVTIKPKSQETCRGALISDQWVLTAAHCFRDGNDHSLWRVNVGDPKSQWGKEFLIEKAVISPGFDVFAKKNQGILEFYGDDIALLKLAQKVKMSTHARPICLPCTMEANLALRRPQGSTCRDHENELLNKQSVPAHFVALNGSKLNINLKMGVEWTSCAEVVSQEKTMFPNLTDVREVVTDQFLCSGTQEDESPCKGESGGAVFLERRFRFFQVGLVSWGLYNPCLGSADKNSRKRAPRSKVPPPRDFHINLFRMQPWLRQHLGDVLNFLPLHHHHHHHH

human C2 G530A = target: T2, human C2 G530A (human, UniProt P06681 21-752)
T2 sequence: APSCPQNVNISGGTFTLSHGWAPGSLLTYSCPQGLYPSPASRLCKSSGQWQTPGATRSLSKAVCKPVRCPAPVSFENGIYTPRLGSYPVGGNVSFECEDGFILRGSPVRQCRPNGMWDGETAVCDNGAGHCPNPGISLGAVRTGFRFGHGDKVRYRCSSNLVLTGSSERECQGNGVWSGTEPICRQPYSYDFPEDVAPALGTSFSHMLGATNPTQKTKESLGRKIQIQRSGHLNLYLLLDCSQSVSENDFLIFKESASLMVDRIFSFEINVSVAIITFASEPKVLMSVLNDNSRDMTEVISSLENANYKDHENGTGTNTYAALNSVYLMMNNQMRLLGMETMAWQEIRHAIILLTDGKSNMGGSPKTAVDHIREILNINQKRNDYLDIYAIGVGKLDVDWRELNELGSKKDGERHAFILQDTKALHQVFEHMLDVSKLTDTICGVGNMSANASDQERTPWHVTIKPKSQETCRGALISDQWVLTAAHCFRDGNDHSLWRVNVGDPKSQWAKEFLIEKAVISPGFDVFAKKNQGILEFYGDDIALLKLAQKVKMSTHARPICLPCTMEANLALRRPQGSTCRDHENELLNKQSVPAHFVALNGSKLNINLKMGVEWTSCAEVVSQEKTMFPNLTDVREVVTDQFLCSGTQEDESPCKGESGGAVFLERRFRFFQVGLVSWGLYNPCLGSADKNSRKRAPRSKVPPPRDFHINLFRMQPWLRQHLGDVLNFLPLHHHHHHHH

human C2 H435A = target: T3, human C2 H435A (human, UniProt P06681 21-752)
T3 sequence: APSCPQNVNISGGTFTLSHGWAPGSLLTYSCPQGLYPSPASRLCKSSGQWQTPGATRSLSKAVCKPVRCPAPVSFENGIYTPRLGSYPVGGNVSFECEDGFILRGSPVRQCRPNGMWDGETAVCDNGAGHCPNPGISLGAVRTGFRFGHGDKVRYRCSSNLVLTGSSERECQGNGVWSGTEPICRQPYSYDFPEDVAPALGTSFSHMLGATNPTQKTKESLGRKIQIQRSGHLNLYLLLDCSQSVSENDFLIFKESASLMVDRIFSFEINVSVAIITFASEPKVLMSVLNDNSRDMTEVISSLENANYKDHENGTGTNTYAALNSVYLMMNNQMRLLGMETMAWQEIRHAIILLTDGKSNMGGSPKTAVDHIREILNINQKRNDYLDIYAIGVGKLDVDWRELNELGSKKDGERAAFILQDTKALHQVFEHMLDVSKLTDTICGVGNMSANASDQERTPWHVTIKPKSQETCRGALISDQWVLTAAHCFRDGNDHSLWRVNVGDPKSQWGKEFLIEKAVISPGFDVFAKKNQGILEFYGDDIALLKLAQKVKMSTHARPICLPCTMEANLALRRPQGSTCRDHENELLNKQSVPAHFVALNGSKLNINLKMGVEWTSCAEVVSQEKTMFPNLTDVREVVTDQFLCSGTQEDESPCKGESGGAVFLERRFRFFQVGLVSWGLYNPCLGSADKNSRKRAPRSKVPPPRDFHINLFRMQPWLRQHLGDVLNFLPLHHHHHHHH

human C2 W420A = target: T4, human C2 W420A (human, UniProt P06681 21-752)
T4 sequence: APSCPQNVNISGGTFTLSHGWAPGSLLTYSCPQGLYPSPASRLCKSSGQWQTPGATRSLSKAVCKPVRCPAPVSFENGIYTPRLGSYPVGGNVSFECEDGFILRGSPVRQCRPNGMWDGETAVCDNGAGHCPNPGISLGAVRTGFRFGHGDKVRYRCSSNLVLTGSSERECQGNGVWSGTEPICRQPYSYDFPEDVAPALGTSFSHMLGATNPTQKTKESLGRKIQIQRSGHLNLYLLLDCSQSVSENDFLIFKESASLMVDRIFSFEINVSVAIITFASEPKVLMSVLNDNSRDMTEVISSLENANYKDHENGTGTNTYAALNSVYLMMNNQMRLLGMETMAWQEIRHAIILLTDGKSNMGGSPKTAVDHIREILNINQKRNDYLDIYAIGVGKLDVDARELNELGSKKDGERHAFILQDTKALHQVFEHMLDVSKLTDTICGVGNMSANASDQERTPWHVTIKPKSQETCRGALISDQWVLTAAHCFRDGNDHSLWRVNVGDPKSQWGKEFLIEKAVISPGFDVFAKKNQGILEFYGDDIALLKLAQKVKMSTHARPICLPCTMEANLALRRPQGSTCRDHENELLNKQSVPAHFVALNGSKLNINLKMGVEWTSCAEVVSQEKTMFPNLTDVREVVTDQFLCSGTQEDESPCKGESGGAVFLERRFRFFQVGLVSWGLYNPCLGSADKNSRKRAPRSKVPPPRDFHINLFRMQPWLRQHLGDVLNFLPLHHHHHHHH

B1: RF16-226 (antibody, human IgG4 S228P, lambda)
heavy: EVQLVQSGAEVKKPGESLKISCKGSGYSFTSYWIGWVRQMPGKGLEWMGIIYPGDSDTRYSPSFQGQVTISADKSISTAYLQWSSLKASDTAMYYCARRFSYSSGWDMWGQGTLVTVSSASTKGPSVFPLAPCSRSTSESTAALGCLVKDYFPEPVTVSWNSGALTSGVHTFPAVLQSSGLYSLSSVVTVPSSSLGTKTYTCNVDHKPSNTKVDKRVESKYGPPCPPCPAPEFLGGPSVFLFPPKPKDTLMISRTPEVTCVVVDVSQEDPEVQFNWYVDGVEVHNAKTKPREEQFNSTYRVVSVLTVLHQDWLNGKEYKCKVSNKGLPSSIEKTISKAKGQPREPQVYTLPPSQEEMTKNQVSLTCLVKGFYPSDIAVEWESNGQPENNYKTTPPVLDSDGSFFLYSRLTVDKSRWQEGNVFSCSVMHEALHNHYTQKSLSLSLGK
light: SYELTQPPSVSVSPGQTARITCSGDALTSKYVAWYQQKSGLAPLLVIYEDTRRPSGIPAKFSGSSSGSVATLTISGAHGDDEADYYCYSTDASGHQRVFGGGTKLTVLSQPKAAPSVTLFPPSSEELQANKATLVCLISDFYPGAVTVAWKADGSPVKAGVETTKPSKQSNNKYAASSYLSLTPEQWKSHRSYSCQVTHEGSTVEKTVAPTECS
notes: pH-dependent anti-C2 antibody from a phage display library; also called WT
B1 was tested, and the Fold diff (human C2 D282A) was 1 fold, the Fold diff (human C2 G530A) was 2 fold and the Fold diff (human C2 H435A) was 2 fold. For the same binder, the Fold diff (human C2 W420A) was 2 fold.
